Measured values taken from patent US20250339531A1, “DUX4 POLYPEPTIDES AND NUCLEIC ACIDS FOR TREATING INFLAMMATORY AND AUTOIMMUNE CONDITIONS” (Fred Hutchinson Cancer Center, priority 2021, published 2025).

tested on: proteins that co-immunoprecipitated with DUX4-CTD constructs expressed in MB135 myoblasts; assay: LC-MS of proteins co-immunoprecipitated with DUX4-CTD (Table 1) and western validation; type: binding, human; parameters: key to 4. mL1dL2 + Dox + IFNG / 4. + IFNG mix / 4. longCTD + Dox + IFNG / 3. + IFNg + Dox longCTD / 3. + Dox longCTD / 3. + IFNG longCTD: peptide-spectrum matches (PSMs) per protein; settings: LC-MS value per protein co-immunoprecipitated with DUX4-CTD construct mL1dL2 in MB135 myoblasts; + Dox + IFNG; kind of count not given
Procedure, shortened: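 Two independent experiments compared uninduced, doxycycline and doxycycline+IFNG MB135iDUX4-CTD (plus MB135iDUX4mL1dL2) myoblasts. Anti-FLAG pulldowns (3 h, 4 °C) were eluted in LDS buffer for western validation or with FLAG peptide for trypsin digestion and Orbitrap LC-MS; hits needed ≥2 PSMs in both experiments, ranked by total PSMs.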

Molecule	4. mL1dL2 + Dox + IFNG
CAPRIN1 (protein) PSATSHSGSGSKSSGPPPPSGSSGSEAAAGAGAAAPASQHPATGTGAVQTEAMKQILGVIDKKLRNLEKKKGKLDDYQERMNKGERLNQDQLDAVSKYQEVTNNLEFAKELQRSFMALSQDIQKTIKKTARREQLMREEAEQKRLKTVLELQYVLDKLGDDEVRTDLKQGLNGVPILSEEELSLLDEFYKLVDPERDMSLRLNEQYEHASIHLWDLLEGKEKPVCGTTYKVLKEIVERVFQSNYFDSTHNHQNGLCEEEEAASAPAVEDQVPEAEPEPAEEYTEQSEVESTEYVNRQFMAETQFTSGEKEQVDEWTVETVEVVNSLQQQPQAASPSVPEPHSLTPVAQADPLVRRQRVQDLMAQMQGPYNFIQDSMLDFENQTLDPAIVSAQPMNPTQNMDMPQLVCPPVHSESRLAQPNQVPVQPEATQVPLVSSTSEGYTASQPLYQPSHATEQRPQKEPIDQIQATISLNTDQTTASSSLPAASQPQVFQAGTSKPLHSSGINVNAAPFQSMQTVFNMNAPVPPVNEPETLKQQNQYQASYNQSFSSQPHQVEQTELQQEQLQTVVGTYHGSPDQSHQVTGNHQQPPQQNTGFPRSNQPYYNSRGVSRGGSRGARGLMNGYRGPANGFRGGYDGYRPSFSNTPNSGYTQSQFSAPRDYSGYQRDGYQQNFKRGSGQSGPRGAPRGRGGPPRPNRGMPQMNTQQVN	1
NAP1L1 (protein) ADIDNKEQSELDQDLDDVEEVEEEETGEETKLKARQLTVQMMQNPQILAALQERLDGLVETPTGYIESLPRVVKRRVNALKNLQVKCAQIEAKFYEEVHDLERKYAVLYQPLFDKRFEIINAIYEPTEEECEWKPDEEDEISEELKEKAKIEDEKKDEEKEDPKGIPEFWLTVFKNVDLLSDMVQEHDEPILKHLKDIKVKFSDAGQPMSFVLEFHFEPNEYFTNEVLTKTYRMRSEPDDSDPFSFDGPEIMGCTGCQIDWKKGKNVTLKTIKKKQKHKGRGTVRTVTKTVSNDSFFNFFAPPEVPESGDLDDDAEAILAADFEIGHFLRERIIPRSVLYFTGEAIEDDDDDYDEEGEEADEEGEEEGDEENDPDYDPKKDQNPAEC	2
KANK2 (protein) MAQVLHVPAPFPGTPGPASPPAFPAKDPDPPYSVETPYGYRLDLDFLKYVDDIEKGHTLRRVAVQRRPRLSSLPRGPGSWWTSTESLCSNASGDSRHSAYSYCGRGFYPQYGALETRGGFNPRVERTLLDARRRLEDQAATPTGLGSLTPSAAGSTASLVGVGLPPPTPRSSGLSTPVPPSAGHLAHVREQMAGALRKLRQLEEQVKLIPVLQVKLSVLQEEKRQLTVQLKSQKFLGHPTAGRGRSELCLDLPDPPEDPVALETRSVGTWVRERDLGMPDGEAALAAKVAVLETQLKKALQELQAAQARQADPQPQAWPPPDSPVRVDTVRVVEGPREVEVVASTAAGAPAQRAQSLEPYGTGLRALAMPGRPESPPVFRSQEVVETMCPVPAAATSNVHMVKKISITERSCDGAAGLPEVPAESSSSPPGSEVASLTQPEKSTGRVPTQEPTHREPTRQAASQESEEAGGTGGPPAGVRSIMKRKEEVADPTAHRRSLQFVGVNGGYESSSEDSSTAENISDNDSTENEAPEPRERVPSVAEAPQLRPAGTAAAKTSRQECQLSRESQHIPTAEGASGSNTEEEIRMELSPDLISACLALEKYLDNPNALTERELKVAYTTVLQEWLRLACRSDAHPELVRRHLVTFRAMSARLLDYVVNIADSNGNTALHYSVSHANFPVVQQLLDSGVCKVDKQNRAGYSPIMLTALATLKTQDDIETVLQLFRLGNINAKASQAGQTALMLAVSHGRVDVVKALLACEADVNVQDDDGSTALMCACEHGHKEIAGLLLAVPSCDISLTDRDGSTALMVALDAGQSEIASMLYSRMNIKCSFAPMSDDESPTSSSAEE	1
